Measured values as given in the RNAGym collection of RNA variant scans (doi:10.7554/elife.80360).

B1: HDV Ribozyme (parent)
chain: GGCCGGCAUGGUCCCAGCCUCCUCGCUGGCGCCGGCUGGGCAACAUUCCGAGGGGACCGUCCCCUCGGUAAUGGCGAAUGGGACCCA

Variants of: B1
Assay: self-cleavage, relative activity (ratio to wild type); higher = more cleavage; co-transcriptional

| Variant | self-cleavage |
| --- | --- |
| GGCCGGCAUGGUCCCAGCCUCCUCGCUGGCGCCGGCUGGGCAACAUUACGAGGGGACCGUCCCCUCGCUAAUGGCGAAUGGGACCCA | 0.707 |
| GGCCGGCAUGGUCCCAGCCUCCUCGCUGGCGCCGGCUGGGCAACAUUACGAGGGGACCGUCCCCUCGGUAAUGUCGAAUGGGACCCA | 0.38 |
| GGCCGGCAUGGUCCCAGCCUCCUCGCUGGCGCCGGCUGGGCAACAUUACGAGGGGACCGUCCCCUCGGUAAUGGCUAAUGGGACCCA | 1.03 |
| GGCCGGCAUGGUCCCAGCCUCCUCGCUGGCGCCGGCUGGGCAACAUUACGAGGGGACCGUCCCCUCGGUAAUGGCGAAUAGGACCCA | 0.293 |
| GGCCGGCAUGGUCCCAGCCUCCUCGCUGGCGCCGGCUGGGCAACAUUACGAGGGGACCGACCCCUCGGUAAUGGCGAAUGGGACCCA | 0.918 |
| GGCCGGCAUGGUCCCAGCCUCCUCGCUGGCGCCGGCUGGGCAACAUUACGAGGGGACCGCCCCCUCGGUAAUGGCGAAUGGGACCCA | 0.91 |
| GGCCGGCAUGGUCCCAGCCUCCUCGCUGGCGCCGGCUGGGCAACAUUACGAGGGGACCGGCCCCUCGGUAAUGGCGAAUGGGACCCA | 0.886 |
| GGCCGGCAUGGUCCCAGCCUCCUCGCUGGCGCCGGCUGGGCAACAUUACGAGGGGACCGUCCCCUCGGAAAUGGCGAAUGGGACCCA | 0.814 |
| GGCCGGCAUGGUCCCAGCCUCCUCGCUGGCGCCGGCUGGGCAACAUUACGAGGGGACCGUCCCCUCGGCAAUGGCGAAUGGGACCCA | 0.892 |
| GGCCGGCAUGGUCCCAGCCUCCUCGCUGGCGCCGGCUGGGCAACAUUACGAGGGGACCGUCCCCUCGGGAAUGGCGAAUGGGACCCA | 0.997 |
| GGCCGGCAUGGUCCCAGCCUCCUCGCUGGCGCCGGCUGGGCAACAUUACGAGGGGACCGUCCCCUCGGUAACGGCGAAUGGGACCCA | 0.519 |
| GGCCGGCAUGGUCCCAGCCUCCUCGCUGGCGCCGGCUGGGCAACAUUGCGAGGGGACCGUCCCCUCGGUAAUGGCGAAUGGGACCCA | 0.988 |
| GGCCGGCAUGGUCCCAGCCUCCUCGCUGGCGCCGGCUGGGCAACAUUGCGAGGGGCCCGUCCCCUCGGUAAUGGCGAAUGGGACCCA | 0.875 |
| GGCCGGCAUGGUCCCAGCCUCCUCGCUGGCGCCGGCUGGGCAACAUUGCGAGGGGUCCGUCCCCUCGGUAAUGGCGAAUGGGACCCA | 1.03 |
| GGCCGGCAUGGUCCCAGCCUCCUCGCUGGCGCCGGCUGGGCAACAUUGCGAGGGGACCGUCCCCUCGGUUAUGGCGAAUGGGACCCA | 0.506 |
| GGCCGGCAUGGUCCCAGCCUCCUCGCUGGCGCCGGCUGGGCAACAUUGCGAGGGGACCGUCCCCUCGGUAGUGGCGAAUGGGACCCA | 0.962 |

| Variant | self-cleavage |
| --- | --- |
| GGCCGGCAUGGUCCCAGCCUCCUCGCUGGCGCCGGCUGGGCAACAUUGCGAGGGGACCGUCCCCUCGGUAUUGGCGAAUGGGACCCA | 0.554 |
| GGCCGGCAUGGUCCCAGCCUCCUCGCUGGCGCCGGCUGGGCAACAUUGCGAGGGGACCGUCCCCUCGGUAAUGGCGAUUGGGACCCA | 0.142 |
| GGCCGGCAUGGUCCCAGCCUCCUCGCUGGCGCCGGCUGGGCAACAUUGCGAGGGGACCGUCCCCUCGGUAAUGGCGAAUGGGACCCC | 1.08 |
| GGCCGGCAUGGUCCCAGCCUCCUCGCUGGCGCCGGCUGGGCAACAUUGCGAGGGGACCGUCCCCUCGGUAAUGGCGAAUGGGACCCG | 0.975 |
| GGCCGGCAUGGUCCCAGCCUCCUCGCUGGCGCCGGCUGGGCAACAUUGAGAGGGGACCGUCCCCUCGGUAAUGGCGAAUGGGACCCA | 0.808 |
| GGCCGGCAUGGUCCCAGCCUCCUCGCUGGCGCCGGCUGGGCAACAUUGCGAGGGGAACGUCCCCUCGGUAAUGGCGAAUGGGACCCA | 0.798 |
| GGCCGGCAUGGUCCCAGCCUCCUCGCUGGCGCCGGCUGGGCAACAUUGCGAGGGGAUCGUCCCCUCGGUAAUGGCGAAUGGGACCCA | 1.04 |
| GGCCGGCAUGGUCCCAGCCUCCUCGCUGGCGCCGGCUGGGCAACAUUGCGAGGGGACCGUCCCCUAGGUAAUGGCGAAUGGGACCCA | 0.898 |
| GGCCGGCAUGGUCCCAGCCUCCUCGCUGGCGCCGGCUGGGCAACAUUGCGAGGGGACCGUCCCCUUGGUAAUGGCGAAUGGGACCCA | 0.868 |
| GGCCGGCAUGGUCCCAGCCUCCUCGCUGGCGCCGGCUGGGCAACAUUGCGAGGGGACCGUCCCCUCGGUAAUGGCGAAUGGGAUCCA | 0.848 |
| GGCCGGCAUGGUCCCAGCCUCCUCGCUGGCGCCGGCUGGGCAACAUUGCGAGGGGACCGUCCCCUCGGUAAUGGCGAAUGGGACCGA | 1.11 |
| GGCCGGCAUGGUCCCAGCCUCCUCGCUGGCGCCGGCUGGGCAACAUUGCUAGGGGACCGUCCCCUCGGUAAUGGCGAAUGGGACCCA | 0.941 |
| GGCCGGCAUGGUCCCAGCCUCCUCGCUGGCGCCGGCUGGGCAACAUUGCGAAGGGACCGUCCCCUCGGUAAUGGCGAAUGGGACCCA | 0.86 |
| GGCCGGCAUGGUCCCAGCCUCCUCGCUGGCGCCGGCUGGGCAACAUUGCGACGGGACCGUCCCCUCGGUAAUGGCGAAUGGGACCCA | 0.762 |
| GGCCGGCAUGGUCCCAGCCUCCUCGCUGGCGCCGGCUGGGCAACAUUGCGAGGGGACCGUCCCCUCGGUAAUGGCGAAUUGGACCCA | 0.244 |
| GGCCGGCAUGGUCCCAGCCUCCUCGCUGGCGCCGGCUGGGCAACAUUGCGAGGGGACCGUCCCCUCGGUAAUGGCGAAUGGCACCCA | 0.111 |
